Consider five molecules from US20230257452A1 (GTINVENT, published 2023).

In assay [1] the target is T1, full length human tau protein (2N4R, isoform Tau-F, 441 amino acids) (human, UniProt P10636 1-758).
T1 construct: also called hT40; htau40
In words: ELISA, hT40 coated, scAb titrated. In general terms: An ELISA detects its analyte on a solid surface through an enzyme-linked reagent.

Assay [2] has as its target dGA (tau 297-390) (human, UniProt P10636 614-707). Briefly: ELISA. The source says: (§1) The plates were blocked with 2% MPBS and scAb samples added at desired starting concentrations and double diluted across the plate. Binding was detected using anti-Human C Kappa HRP conjugated secondary antibody and the resulting immunoreaction was developed and absorbance values measured as described above.

The target of assay [3] is T2, dGAE (tau 297-391) (human, UniProt P10636 614-708).
T2 construct: also called dGAE95
In words: sandwich ELISA, 423 mAb capture, dGAE titrated, scAb at 10 ug/ml as detector [cont) G-I]. The procedure: (§2) Following overnight agitation, one third of each sample was kept aside as ‘total’ and the rest was spun down at 16000×g for 30 min and separated into ‘supernatant’ and ‘pellet’. The pellet was then resuspended in half the original volume for further experiments. […] All double dilutions were done in final volumes of 100 μl. This was left to incubate on lab bench for 1 h followed by the addition of test scAbs at 10 μg/ml.

Assay [4] addresses T3, dGAE aggregates (human, UniProt P10636 614-708, limits assumed).
T3 construct: 100 µM dGAE aggregated with DTT at 37 °C, 700 rpm, 24 h; also called aggregated dGAE
In words: sandwich ELISA, 423 mAb capture, aggregation sample titrated, scAb at 10 ug/ml as detector [cont) G-I]. The procedure: as §2

Assay [5] has as its target T4, mouse tau (isoform Tau-A) (mouse, UniProt P10637 2-733).
T4 construct: endogenous tau in mouse brain homogenate or plasma; also called endogenous mouse tau
In words: sandwich ELISA on mouse brain homogenates (incl. wild type), S1D12 mAb capture.

Assay [6] has as its target T1, full length human tau protein (2N4R, …). Briefly: sandwich ELISA, S1D12 mAb capture, hT40 titrated, detection scAb, chemiluminescent. The procedure: (§3) Full length tau (hT40), at 1 μg/ml starting concentration was added to designated wells and double diluted across rest of the plates and left to incubate at R/T for 1 h. A series of detection scAbs with varying epitope recognition properties were added at 10 μg/ml to designated wells (FIG. 22). For colourimetric detection HRP conjugated anti-HuCk secondary antibody was used and the resulting immunoreaction was developed and absorbance at 450 nm measured as described previously. Cut-off point for a positive binding event was an absorbance value of 0.3 following background subtraction. In order to enhance the assay sensitivity, a chemiluminescent detection method was adopted where 50 μL SuperSignal ELISA Femto Substrate (Thermo Scientific) was added to each well following incubation with anti-HuCK HRP antibody and subsequent washing. The luminescence was read using Clariostar Plus microplate reader. A further modification to this protocol was done where various detection scAbs were directly conjugated with HRP and detected using chemiluminescent protocol as before.

For assay [7] the target is unchanged. Briefly: sandwich ELISA, S1D12 mAb capture, hT40 titrated, detection scAb at 10 ug/ml, colourimetric. The procedure:
as §3

Assay [8] concerns the target T2, dGAE (tau 297-391). Briefly: tau-tau immunoassay: scAb preincubated with 100 nM dGAE; blocked ligand: plate-bound dGA (1000 nM); bound dGAE detected with E2E8. The procedure: The adapted method is as follows: dGA (1000 nM) was adsorbed to a Nunc 96-well MaxiSorp plate and incubated for 1 h at 37° C. Plates were subsequently washed 3 times with PBST which was performed after each 1 h incubation. The plates were blocked with 2% (w/v) dried milk powder in PBS for 1 h at 37° C. […] The secondary antibody used was HRP-conjugated Anti-mouse IgG (1:1000 dilution, Sigma) and incubated at RT for 1 h. The plate was subsequently developed, and readings taken at absorbance 450 nm.

Assay [9] addresses Tau 337-368 (human). Briefly: ELISA, antigen coated, scAb titrated; panel title 337-368.
Source text: as §1

For assay [10], the target named is T5, N biotin 341-353 tau peptide (human).
T5 peptide: Biotin-SEKLDFKDRVQSK
In words: ELISA, biotinylated peptide on streptavidin, scAb titrated [B]. The procedure:
Briefly, 5 μg/ml streptavidin (Thermo Fisher) was adsorbed to Nunc 96-well MaxiSorp plates and following incubation at 37° C. for 1 h, the plates were washed as normal and blocked with 2% MPBS. […] Subsequently, test scAbs at starting concentrations of 100-500 nM was added and double diluted across the plate for each peptide and incubated for 1 h at 37° C. Rest of the ELISA was conducted as described above and the plates were read at absorbance 450 nm. Immunoreactivity of the scAb of interest was quantified as the % of scAb was bound for each peptide at a chosen concentration (FIG. 15-20).

Assay [11] has as its target T1, full length human tau protein (2N4R, …). In words: ELISA, hT40 coated, scAb titrated. This is another data set of the same source.
Assay [12] addresses T3, dGAE aggregates. In words: capture ELISA, mAb coated at 1 ug/ml, dGAE aggregates titrated, S1G2 scAb detection.
For assay [13], the target named is T1, full length human tau protein (2N4R, …). Briefly: ELISA.
Source text: as §1

Assay [14] deals with Tau 1-319 (human, UniProt P10636 1-636). In words: ELISA.
Source text: as §1

Where no end group is shown, it is not given here. The star is where a group is joined. Biotin = O=C1N[C@H]2[C@H](CS[C@H]2CCCCC(=O)*)N1

T1 sequence (P10636 other isoform, or with tags, fused parts or gaps limits assumed): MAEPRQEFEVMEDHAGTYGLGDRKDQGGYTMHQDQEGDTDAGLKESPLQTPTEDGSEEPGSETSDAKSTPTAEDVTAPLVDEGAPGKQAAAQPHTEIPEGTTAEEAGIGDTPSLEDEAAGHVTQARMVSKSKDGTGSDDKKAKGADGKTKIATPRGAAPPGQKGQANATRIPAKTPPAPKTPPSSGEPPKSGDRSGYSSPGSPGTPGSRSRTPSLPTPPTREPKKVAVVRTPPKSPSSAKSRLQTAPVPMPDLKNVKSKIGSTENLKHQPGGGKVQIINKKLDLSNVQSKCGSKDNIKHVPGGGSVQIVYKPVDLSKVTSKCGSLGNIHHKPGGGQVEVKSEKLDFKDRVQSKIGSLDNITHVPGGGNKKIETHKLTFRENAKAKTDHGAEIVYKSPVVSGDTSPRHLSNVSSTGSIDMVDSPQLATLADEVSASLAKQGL
T2 sequence (P10636 614-708 limits assumed): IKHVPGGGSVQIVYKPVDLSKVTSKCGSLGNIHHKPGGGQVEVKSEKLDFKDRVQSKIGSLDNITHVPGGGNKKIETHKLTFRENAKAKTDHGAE
T3 sequence (P10636 614-708 limits assumed): as above
Tau 337-368 (human), sequence (chain, as listed by the source): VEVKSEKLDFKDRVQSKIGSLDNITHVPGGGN
dGA (tau 297-390), sequence (P10636 614-707 limits assumed): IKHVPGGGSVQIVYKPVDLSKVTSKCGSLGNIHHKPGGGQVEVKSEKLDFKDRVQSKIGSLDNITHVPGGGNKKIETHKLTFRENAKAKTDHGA
Tau 1-319, sequence (P10636 other isoform, or with tags, fused parts or gaps): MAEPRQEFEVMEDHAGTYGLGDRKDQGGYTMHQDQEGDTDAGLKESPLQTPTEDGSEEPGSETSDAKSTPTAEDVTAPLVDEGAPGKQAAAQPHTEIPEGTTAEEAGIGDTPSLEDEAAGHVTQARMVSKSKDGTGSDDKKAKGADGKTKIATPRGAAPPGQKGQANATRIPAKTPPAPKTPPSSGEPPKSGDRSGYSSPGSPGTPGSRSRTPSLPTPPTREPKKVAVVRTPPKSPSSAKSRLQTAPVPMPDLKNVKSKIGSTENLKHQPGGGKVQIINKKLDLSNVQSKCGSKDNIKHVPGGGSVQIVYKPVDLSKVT
T4 sequence (P10637 other isoform, or with tags, fused parts or gaps limits assumed): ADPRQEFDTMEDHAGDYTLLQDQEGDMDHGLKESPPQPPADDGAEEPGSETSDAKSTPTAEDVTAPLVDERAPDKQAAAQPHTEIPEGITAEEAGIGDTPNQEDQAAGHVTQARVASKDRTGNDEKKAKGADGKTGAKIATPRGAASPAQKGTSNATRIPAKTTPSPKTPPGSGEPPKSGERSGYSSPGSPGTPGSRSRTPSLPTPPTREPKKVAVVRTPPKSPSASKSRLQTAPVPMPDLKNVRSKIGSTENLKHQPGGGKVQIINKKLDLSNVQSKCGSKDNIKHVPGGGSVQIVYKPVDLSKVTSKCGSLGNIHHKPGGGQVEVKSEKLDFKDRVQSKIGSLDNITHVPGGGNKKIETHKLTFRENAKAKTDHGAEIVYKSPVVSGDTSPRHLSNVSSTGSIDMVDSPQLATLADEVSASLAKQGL

B1: CB3 scAb (scFv)
scFv: QVQLQESGPSLVKPSQTLSLTCTVSGFSLSSVAVNWVRQAPGKVPEWLGGIISNGGTGYNPALKSRLSITRDTSKSQVSLALTHVTTEDTAVYYCGRGVEWEGSMDYLGPGLLVTVSSEGKSSGSGSETKVDDQSVLTQPSSVSGFLGQRVTITCSGSSSNVGAGSYVGWYQQVPGSGLRILIYGATKRASGLPDRFSGSRSGNTATLTISSLQAEDEADYYCVSYQTDFTLVFGSGTRLTVLG
notes: not shown: human C kappa domain and hexa-His tag of the scAb format
As to B1, the binding result in assay [1], in assay [2], in assay [3] and in [4] was “binds” in each case.

B2: S1G2 scAb (scFv)
scFv: QVQLQESGPSLVKPSQTLSLTCTVSGFSLTSNSVGWVRQAPGKAPEWVAGIDTDGEEGYNPALNSRLSITRDTSKSQVSLSLSSVTSEDTAVYYCGRSYRADGLAYGYVQAIDYWGPGLLVTVSSEGKSSGASGESKVDDQAVVTQPSSVSGSLGQRVSITCSGSFIGISSVGWFQQLPGSGLRTIIVASDGRPSGVPDRFSMSKSGNTATLTISSLQAEDEADYFCGSSDRTPYTGVFGSGTRLTVLG
notes: as for B1
Take B2: the binding result in [5] was “binds”. The “LoD (ng/ml) chemiluminescence detection” value in assay [6] is 0.12 ng/mL. In addition, the “LoD (ng/ml) colourimetric detection” value in assay [7] was 2 ng/mL. In addition, the B50 in assay [8] was 65 nM.

B3: S1D12 scAb (scFv)
scFv: QVQLQESGPSLVKPSQTLSLTCTVSGFSLNNNAVGWVRQAPGKVPESLVGCSSDGTCYYNSALKSRLDITRDTSKNQISLSLSSVTTDDAAVYYCTRGHYSIYGYDYLGTIDYWGPGLLVTVSSEGKSSGASGESKVDDQAVLTQPSSVSGSLGQRVSITCSGSSSNVGGGNSVGWYQHLPGSGLKTIIYDTNSRPSGVPDRFSGSRSGNTATLTINSLQAEDEGDYYCVTGDSTTHDDLVGSGTRLTVLG
notes: as for B1
In general, EC50 (read off the curve) refers to the concentration giving half of the maximal effect. As for B3, the binding result in assay [9] and in [10] was “binds” throughout. In assay [11], the “EC50 (read off the curve)” value is approximately 0.9 µg/mL. For the same molecule, the B50 in [8] came out at 80 nM.

B4: E2E8 mAb (antibody, mouse IgG2a, V domains shown)
VH: QVQLQESGPSLVKPSQTLSLTCTVSGFSLTDRGVAWVRQAPGKALEWVGTMRSGGTIDYNPALKSRLSITRDTSKSQVFLSLSSVTTEDMAMYYCARGYLSGDRYAWGRGLLVTVSS
VL: QAVLTQPSSVSKSLGQSVSIACSGSRSDIGYGNYVSWFQQIPGSAPKLLIYDTNTRASGVPDRFSGARSGNTATLTINSLQAEDEADYYCANIDSSRSHLFGSGTRLTVLG
notes: sheep-mouse (IgG2a) chimeric mAb
As to B4, the binding result in assay [12] is reported as “binds”.

B5: CA7 scAb (scFv, V domains shown)
VH: RVRLQGSGPSLVKPSQTLSLTCTVSGFSFDSYYVGWVRQAPGKALEWLGNIYSTGRAFYNPALKSRLSITRDTSKSQVSLSVSSVTIEDTALYYCVRGSYYHGGGNGMVDFFDYWSPGLLVTVSS
VL: QVVRTQPSSVSGSLGQRVSITCSGSSSNVGYGNYVGWFQQVPGSAPKLLIYAATSRASGVPDRFSGSRSGNTATLTIDSLQAEDEADYYCSSYQRGNTGVFGSGTRLTVLG
notes: tested as scAb (VH-linker-VL-HuCk-His in one chain)
For the molecule B5, the binding result in [13] and in [14] was “binds” each time.
